In patent publication US20200316217A1:

Key:
Test in all cases: cell-based or functional assay
Human PTHR1 WT (human) = Human PTHR1 WT (human) (UniProt Q03431)
PTHR16E (human) = PTHR16E (human) (UniProt Q03431)
PTHR1GFP (human) = PTHR1GFP (human) (UniProt Q03431)
PTHR1YFPΔECD (human) = target: PTHR1YFPΔECD (human)
human PTHR2 (human) = human PTHR2 (human) (UniProt P49190)
rat PTHR1 (rat) = rat PTHR1 (rat) (UniProt P25961)
Sequence of rat PTHR1 (rat) (P25961 27-591): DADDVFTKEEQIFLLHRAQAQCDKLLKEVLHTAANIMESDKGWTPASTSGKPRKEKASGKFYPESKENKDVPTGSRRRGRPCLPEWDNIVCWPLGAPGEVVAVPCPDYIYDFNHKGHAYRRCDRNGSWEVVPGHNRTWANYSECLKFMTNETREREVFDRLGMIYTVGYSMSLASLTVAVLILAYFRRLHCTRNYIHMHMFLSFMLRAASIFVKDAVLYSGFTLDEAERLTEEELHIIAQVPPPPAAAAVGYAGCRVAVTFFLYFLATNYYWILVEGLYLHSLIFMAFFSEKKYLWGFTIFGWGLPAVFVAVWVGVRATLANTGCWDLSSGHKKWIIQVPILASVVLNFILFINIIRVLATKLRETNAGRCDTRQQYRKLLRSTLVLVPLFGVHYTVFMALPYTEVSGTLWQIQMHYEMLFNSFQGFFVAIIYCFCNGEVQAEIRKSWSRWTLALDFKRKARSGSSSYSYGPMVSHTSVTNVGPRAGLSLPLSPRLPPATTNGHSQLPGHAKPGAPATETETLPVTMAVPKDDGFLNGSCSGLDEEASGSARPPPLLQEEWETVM

Sequence of human PTHR2 (human) (P49190 25-550): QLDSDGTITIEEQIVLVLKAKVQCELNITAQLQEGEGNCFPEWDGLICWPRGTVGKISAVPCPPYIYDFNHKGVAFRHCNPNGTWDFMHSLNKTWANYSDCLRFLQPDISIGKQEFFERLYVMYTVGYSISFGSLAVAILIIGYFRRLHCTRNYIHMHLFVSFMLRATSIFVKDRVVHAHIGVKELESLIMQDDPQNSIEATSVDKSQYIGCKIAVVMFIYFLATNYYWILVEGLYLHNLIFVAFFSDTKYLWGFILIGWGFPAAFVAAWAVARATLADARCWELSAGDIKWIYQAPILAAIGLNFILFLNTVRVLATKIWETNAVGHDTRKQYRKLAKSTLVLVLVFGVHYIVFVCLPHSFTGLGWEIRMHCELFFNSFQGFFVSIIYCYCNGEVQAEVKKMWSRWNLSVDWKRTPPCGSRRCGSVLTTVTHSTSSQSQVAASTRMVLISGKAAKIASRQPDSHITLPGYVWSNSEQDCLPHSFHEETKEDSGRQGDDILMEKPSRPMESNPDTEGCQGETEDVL

Substance | Stimulation of receptor (cAMP), EC50 (Human PTHR1 WT (human)) | cAMP induction EC50 (Human PTHR1 WT (human)) | Stimulation of receptor (cAMP), EC50 (PTHR16E (human)) | cAMP induction EC50 (PTHR16E (human)) | cAMP induction EC50 (PTHR1GFP (human)) | cAMP induction Max (normalized) (PTHR1GFP (human)) | Stimulation of receptor (cAMP), EC50 (PTHR1YFPΔECD (human)) | cAMP induction EC50 (PTHR1YFPΔECD (human)) | cAMP induction Max (normalized) (PTHR1YFPΔECD (human)) | cAMP induction Max (normalized) (Human PTHR1 WT (human)) | cAMP induction Max (normalized) (PTHR16E (human)) | cAMP induction EC50 (rat PTHR1 (rat)) | other results
VHHGFP-PTH(1-14) | > 100 nM | > 100 nM | > 100 nM | > 100 nM | 1.8 nM | 1.21 normalized | 0.58 nM | 0.58 nM | 1.16 normalized | – | – | – | –
PTH(1-11) (peptide) | 516 nM | 516 nM | 94 nM | 94 nM | 79 nM | 1.1 normalized | 246 nM | 246 nM | 1.02 normalized | 1.01 normalized | 1.09 normalized | 120 nM | half maximal stimulation (cAMP-sensitive luciferase) (PTHR1GFP (human)): 200 nM; cAMP induction EC50 (human PTHR2 (human)): > 100000 nM; cAMP induction Max (normalized) (human PTHR2 (human)): 0.36 normalized; cAMP induction, percent at 100 uM (human PTHR2 (human)): 20 % at 100 µM; cAMP induction Max (normalized) (rat PTHR1 (rat)): 1.02 normalized
PTH(1-9) (peptide) | > 10000 nM | > 10000 nM | > 10000 nM | > 10000 nM | > 10000 nM | – | > 10000 nM | > 10000 nM | – | – | – | – | –
VHHGFP-PTH(1-9) | – | – | – | – | > 100 nM | – | – | – | 0.38 normalized | – | – | – | Stimulation of receptor (cAMP), percent activation (% activation at 100 nM) (PTHR1YFPΔECD (human)): 40; cAMP induction, percent activation (% activation at 100 nM) (PTHR1YFPΔECD (human)): 40
VHHGFP-PTH(1-11) | > 100 nM | > 100 nM | > 100 nM | > 100 nM | 8 nM | 1.1 normalized | 0.14 nM | 0.14 nM | 1.19 normalized | – | – | > 100 nM | activation of PTHR1 (Human PTHR1 WT (human)): > 100 nM; activity, fold enhancement against PTH(1-11) (PTHR1YFPΔECD (human)): > 20000 fold

Now from value to substance, other results behind:

Stimulation of receptor (cAMP), EC50 (Human PTHR1 WT (human)) | cAMP induction EC50 (Human PTHR1 WT (human)) | Stimulation of receptor (cAMP), EC50 (PTHR16E (human)) | cAMP induction EC50 (PTHR16E (human)) | cAMP induction EC50 (PTHR1GFP (human)) | cAMP induction Max (normalized) (PTHR1GFP (human)) | Stimulation of receptor (cAMP), EC50 (PTHR1YFPΔECD (human)) | cAMP induction EC50 (PTHR1YFPΔECD (human)) | cAMP induction Max (normalized) (PTHR1YFPΔECD (human)) | cAMP induction Max (normalized) (Human PTHR1 WT (human)) | cAMP induction Max (normalized) (PTHR16E (human)) | cAMP induction EC50 (rat PTHR1 (rat)) | Substance | other results
– | – | – | – | > 100 nM | – | 0.46 nM | 0.46 nM | 1.06 normalized | – | – | – | VHHGFP-PTH(1-10) | potency, fold against PTH(1-10) (PTHR1YFPΔECD (human)): 7800 fold
4.3 nM | 4.3 nM | 3.4 nM | 3.4 nM | 2.3 nM | 1.09 normalized | 1.1 nM | 1.1 nM | 0.96 normalized | 1.01 normalized | 1.06 normalized | – | PTH(1-14) (peptide) | cAMP induction EC50 (human PTHR2 (human)): 924 nM; cAMP induction Max (normalized) (human PTHR2 (human)): 1.14 normalized
3120 nM | 3120 nM | 5080 nM | 5080 nM | 2550 nM | 1.16 normalized | 3840 nM | 3840 nM | 1.12 normalized | 1.03 normalized | 1.09 normalized | 2470 nM | PTH(1-10) (peptide) | cAMP induction Max (normalized) (rat PTHR1 (rat)): 1.09 normalized
